In US20070190075A1, “Hair growth stimulant composition” (Advangen, Inc. c/o National Institute of Advance Science …, priority 2003, published 2007):

System: C3H/He mouse
Test: Application to mouse after induction of growing stage, with hypodermic FGF-5 injection; shapes and sizes of hair follicles in skin slices
Type: in vivo
Conditions: FGF-5 5 μg hypodermically for 7 days; vs phosphate-buffered saline injected group
Procedure: The hair on the back of a C3H/He mouse (purchased from Japan SLC, Inc.) of an age of 8 weeks whose hair cycle was in the resting stage was pulled out to induce the growing stage. For 7 days from the day following the induction, FGF-5 of 5 μg was hypodermically injected at the same place every time, and around the injected place, the plant extracts from rose fruit, etc. (50% ethanol solutions), “tea extract” and “green tea extract” described in Example 1 were each further applied in an amount of 0.02 ml/cm^2 once a day. To a mouse of a control group, 50% ethanol was applied once a day in the same manner. Further, as a control to the FGF-5 hypodermic injection group, a mouse group wherein a phosphate-buffered saline solution was injected, was prepared.
On the day following the final application, the mouse was killed by dislocation of cervical vertebrae, and the skin at the applied place was taken. The skin thus taken was subjected to fixation with a 10% formalin aqueous solution, then treatment with an ethanol dehydration series, cleaning with xylene and embedding with paraffin. Using a microtome (available from Yamato), the skin was sliced in such a direction that the hair follicle from the top to the bottom could be completely visible, to prepare a skin slice of 4 μm. The resulting skin slice was extended on a silane-coated slide glass (available from Matsunami). […]

B1: FGF-5: Fibroblast growth factor 5, a cytokine that inhibits hair growth; injected hypodermically as challenge agent (protein, UniProt P12034 21-268, looked up)
Fibroblast growth factor 5: HGEKRLAPKGQPGPAATDRNPRGSSSRQSSSSAMSSSSASSSPAASLGSQGSGLEQSSFQWSPSGRRTGSLYCRVGIGFHLQIYPDGKVNGSHEANMLSVLEIFAVSQGIVGIRGVFSNKFLAMSKKGKLHASAKFTDDCKFRERFQENSYNTYASAIHRTEKTGREWYVALNKRGKAKRGCSPRVKPQHISTHFLPRFKQSEQPELSFTVTVPEKKKPPSPIKPKIPLSAPRKNTNSVKYRLKFRFG
For B1, the “growth of hair follicles after hypodermic FGF-5 injection” value was “growth of the hair follicles was inhibited more than that in the group wherein a phosphate-buffered saline solution had been injected”.
